Test results reported in paper PMC3905715 (Nature Communications, 2013).

B12: mouse ZNRF3 ectodomain (mZNRF3ecto, K53-L205) (domain or fragment, UniProt Q5SSZ7 53-205, looked up)
chain: KETAFVEVVLFESSPSGDYTTHTTGLTGRFSRAGAMLSAEGEIVQMHPLGLCNNNDEEDLYEYGWVGVVKLEQPELDPKPCLTVLGKAKRAVQRGATAVIFDVSENPEAIDQLNQGSEDPLKRPVVYVKGADAIKLMNIVNKQKVARARIQHL
notes: ZNRF3 ectodomain, mouse, residues K53-L205; pHLsec vector; used for crystals, ultracentrifugation and as SPR analyte; also called wt mZNRF3_(ecto); source: HEK293T, secreted, purified (HisTrap, gel filtration)

Columns and labels:
[1] = target: Rspo Fu1–Fu2 chimera: Fu1 of Rspo4 with Fu2 of a 'strong' Rspo (mouse | not stated); test: SPR; binding of Rspo Fu1–Fu2 chimeras to ZNRF3ecto
[2] = target: T1, preformed hLGR5ecto,lr × mRspo2 Fu1–Fu2 complex, O75473; test: SPR; conditions: chain shown with the change
T1 chain 1: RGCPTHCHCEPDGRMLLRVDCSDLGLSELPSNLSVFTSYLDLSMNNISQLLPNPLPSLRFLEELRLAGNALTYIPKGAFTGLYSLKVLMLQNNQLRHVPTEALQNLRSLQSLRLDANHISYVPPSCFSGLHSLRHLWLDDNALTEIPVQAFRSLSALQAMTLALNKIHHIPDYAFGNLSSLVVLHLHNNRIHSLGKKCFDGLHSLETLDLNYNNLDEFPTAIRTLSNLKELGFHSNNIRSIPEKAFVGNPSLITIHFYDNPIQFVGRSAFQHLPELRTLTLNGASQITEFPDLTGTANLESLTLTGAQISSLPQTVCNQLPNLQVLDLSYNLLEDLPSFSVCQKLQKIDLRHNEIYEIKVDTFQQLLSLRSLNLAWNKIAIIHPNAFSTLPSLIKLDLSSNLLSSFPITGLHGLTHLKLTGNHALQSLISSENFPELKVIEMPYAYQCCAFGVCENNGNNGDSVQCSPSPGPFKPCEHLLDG
T1 chain 2: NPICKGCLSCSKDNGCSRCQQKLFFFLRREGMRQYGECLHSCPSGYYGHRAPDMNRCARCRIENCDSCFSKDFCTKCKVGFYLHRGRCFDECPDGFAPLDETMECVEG

[3] = target: T2, mouse Rspo2 Fu1–Fu2 (mRspo2Fu1–Fu2, N37 or I39-G144), His10; test: SPR; conditions: chain shown with the change
T2 chain: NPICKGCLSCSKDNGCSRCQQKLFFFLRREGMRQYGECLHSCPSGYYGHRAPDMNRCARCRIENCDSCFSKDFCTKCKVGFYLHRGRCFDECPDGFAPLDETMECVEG

[4] = target: B12; test: SPR; mZNRF3ecto as analyte, biotinylated Rspo variants immobilised on streptavidin; equilibrium, 25 °C, 10 mM HEPES/NaOH pH 7.5, 150 mM NaCl, 0.005% Tween20; Biacore T200; conditions: both partners purified
[5] = target: T3, human LGR5 ectodomain (hLGR5ecto, R32-G557), immobilised for SPR (human, UniProt O75473 32-557); test: SPR
T3 chain: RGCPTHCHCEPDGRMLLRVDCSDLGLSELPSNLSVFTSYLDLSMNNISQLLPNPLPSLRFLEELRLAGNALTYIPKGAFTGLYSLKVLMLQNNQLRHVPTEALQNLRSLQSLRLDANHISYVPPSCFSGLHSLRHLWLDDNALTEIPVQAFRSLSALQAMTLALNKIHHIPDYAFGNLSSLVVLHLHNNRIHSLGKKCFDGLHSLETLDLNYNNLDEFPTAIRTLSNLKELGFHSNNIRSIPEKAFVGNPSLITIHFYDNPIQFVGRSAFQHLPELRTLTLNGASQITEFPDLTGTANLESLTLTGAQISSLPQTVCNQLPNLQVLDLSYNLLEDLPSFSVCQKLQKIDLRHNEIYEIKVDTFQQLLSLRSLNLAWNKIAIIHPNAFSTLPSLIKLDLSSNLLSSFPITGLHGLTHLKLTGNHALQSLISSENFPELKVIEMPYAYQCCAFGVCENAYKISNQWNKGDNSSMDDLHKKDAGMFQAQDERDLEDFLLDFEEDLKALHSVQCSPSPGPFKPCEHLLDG

[6] = target: T4, human LGR5 ectodomain (hLGR5ecto, R32-G557), immobilised for SPR (human, UniProt O75473 32-557); test: SPR; binding of Rspo Fu1–Fu2 proteins and chimeras to hLGR5ecto; single dilution series; conditions: both partners purified
T4 construct: LGR5 ectodomain, human, residues R32-G557; the methods describe biotinylated variants on streptavidin
T4 sequence (looked up): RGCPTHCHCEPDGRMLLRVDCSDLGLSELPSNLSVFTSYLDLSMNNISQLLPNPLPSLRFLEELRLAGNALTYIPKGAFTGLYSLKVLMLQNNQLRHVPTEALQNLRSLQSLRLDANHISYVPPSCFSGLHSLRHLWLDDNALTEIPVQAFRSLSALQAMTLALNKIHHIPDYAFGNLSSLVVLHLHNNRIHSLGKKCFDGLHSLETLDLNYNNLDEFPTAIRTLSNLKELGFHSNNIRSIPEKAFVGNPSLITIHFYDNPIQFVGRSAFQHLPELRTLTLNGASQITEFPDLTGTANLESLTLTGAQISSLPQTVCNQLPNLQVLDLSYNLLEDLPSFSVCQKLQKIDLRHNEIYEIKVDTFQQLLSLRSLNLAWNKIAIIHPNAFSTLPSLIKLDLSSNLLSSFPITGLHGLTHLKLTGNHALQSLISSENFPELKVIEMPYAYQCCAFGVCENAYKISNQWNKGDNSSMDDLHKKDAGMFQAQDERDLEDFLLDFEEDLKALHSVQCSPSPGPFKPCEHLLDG

mZNRF3ecto M98T = target: T5, mZNRF3ecto M98T (Mus musculus); test: SPR
T5 chain: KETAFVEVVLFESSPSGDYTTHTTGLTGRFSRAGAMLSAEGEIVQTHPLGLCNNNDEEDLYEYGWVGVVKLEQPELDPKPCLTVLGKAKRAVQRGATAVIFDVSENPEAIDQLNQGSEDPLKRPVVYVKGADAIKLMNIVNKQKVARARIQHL

[7] = target: the molecule itself; test: crystal structure; X-ray, sitting drop vapour diffusion; apo proteins and complexes in several crystal forms
hRSPO3 = target: T6, hRSPO3 (Homo sapiens (Human), UniProt Q9BXY4); test: SPR equilibrium, RSPO Fu1-Fu2 immobilised
T6 chain: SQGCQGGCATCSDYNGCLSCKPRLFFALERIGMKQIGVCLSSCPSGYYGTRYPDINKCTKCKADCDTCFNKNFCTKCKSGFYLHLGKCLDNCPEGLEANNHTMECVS

hRSPO1 = target: T7, hRSPO1 (Homo sapiens (Human), UniProt Q2MKA7); test: SPR equilibrium, RSPO Fu1-Fu2 immobilised
T7 chain: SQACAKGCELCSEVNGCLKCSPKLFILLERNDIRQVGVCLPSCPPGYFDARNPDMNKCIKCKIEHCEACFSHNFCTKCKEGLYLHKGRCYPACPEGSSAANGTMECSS

[8] = target: T4, human LGR5 ectodomain (hLGR5ecto, …); test: SPR; hLGR5ecto (R32-G557) immobilised; injections of 10 μM solutions step by step, and saturation with the preformed mZNRF3ecto × mRSPO2 complex (single dilution series); conditions: both partners purified

With “mouse ZNRF3 ectodomain (mZNRF3ecto, K53-L205) (from UniProt Q5SSZ7 53-205) (domain or fragment)” the Kd [1] was 3.6 µM.

B1: mouse ZNRF3 ectodomain (K53-L205), biotinylated, immobilised for SPR, Q5SSZ7 E92N; E94T (protein)
chain: KETAFVEVVLFESSPSGDYTTHTTGLTGRFSRAGAMLSANGTIVQMHPLGLCNNNDEEDLYEYGWVGVVKLEQPELDPKPCLTVLGKAKRAVQRGATAVIFDVSENPEAIDQLNQGSEDPLKRPVVYVKGADAIKLMNIVNKQKVARARIQHL
B1 showed a Kd [2] of 3500 nM.

B2: mouse ZNRF3 ectodomain (K53-L205), biotinylated, immobilised for SPR, Q5SSZ7 S90C (protein)
chain: KETAFVEVVLFESSPSGDYTTHTTGLTGRFSRAGAMLCAEGEIVQMHPLGLCNNNDEEDLYEYGWVGVVKLEQPELDPKPCLTVLGKAKRAVQRGATAVIFDVSENPEAIDQLNQGSEDPLKRPVVYVKGADAIKLMNIVNKQKVARARIQHL
B2 showed a Kd [2] of 206 nM.

B3: human RNF43 ectodomain (hRNF43ecto, Q44-L188), biotinylated, immobilised for SPR, Q68DV7 K108N (protein)
chain: QKAIIRVIPLKMDPTGKLNLTLEGVFAGVAEITPAEGKLMQSHPLYLCNASDDDNLEPGFISIVNLESPRRAPRPCLSLASKARMAGERGASAVLFDITEDRAAAEQLQQPLGLTWPVVLIWGNDAEKLMEFVYKNQKAHVRIEL
B3 was tested, and the Kd [3] was 62 nM.

B4: human RNF43 ectodomain (hRNF43ecto, Q44-L188), biotinylated, immobilised for SPR, Q68DV7 L82S (protein)
chain: QKAIIRVIPLKMDPTGKLNLTLEGVFAGVAEITPAEGKSMQSHPLYLCNASDDDNLEPGFISIVKLESPRRAPRPCLSLASKARMAGERGASAVLFDITEDRAAAEQLQQPLGLTWPVVLIWGNDAEKLMEFVYKNQKAHVRIEL
Work on B4 yielded a Kd [3] of 78 nM.

B5: mouse Rspo4 Fu1–Fu2 (T29-Q136) (domain or fragment, UniProt Q8BJ73 29-136, looked up)
chain: TGLGGNCTGCVICSEENGCSTCQQRLFLFIRREGIRQYGKCVHDCPLGFFGIRGQEANRCKKCGATCESCFSQDFCIRCKRRFHLYKGKCLPSCPPGTLTHQSTRECQ
modifications: biotin at the C-terminal BirA recognition sequence (as immobilised ligand in Figure 4b)
notes: R-spondin 4, mouse, Fu1-Fu2, residues T29-Q136; also called mRspo4; mRspo4Fu1–Fu2
B5 was tested, and the Kd [4] was 300 µM, the Kd [5] was 73 nM and the binding result [6] was “binds”.

B6: mouse Rspo2 Fu1–Fu2 (mRspo2Fu1–Fu2, N37 or I39-G144), His10 (domain or fragment)
chain: NPICKGCLSCSKDNGCSRCQQKLFFFLRREGMRQYGECLHSCPSGYYGHRAPDMNRCARCRIENCDSCFSKDFCTKCKVGFYLHRGRCFDECPDGFAPLDETMECVEG
Molecule B6 has a Kd [5] of 14 nM.

B7: mR42 (protein)
chain: TGLGGNCTGCVICSEENGCSTCQQRLFLFIRREGIRQYGKCVHDCPLGFFGIRGQEANRCKKCRIENCDSCFSKDFCTKCKVGFYLHRGRCFDECPDGFAPLDETMECVEG
modifications: Chimera read from its name as Rspo4 Fu1 + Rspo2 Fu2. Junction not printed: set by convention after the residue aligned with Rspo2 R95. Disulphides
Work on B7 yielded a Kd [5] of 240 nM.

B8: mouse Rspo2 Fu1–Fu2 (mRspo2Fu1–Fu2, N37 or I39-G144), His10 (domain or fragment)
chain: NPICKGCLSCSKDNGCSRCQQKLFFFLRREGMRQYGECLHSCPSGYYGHRAPDMNRCARCRIENCDSCFSKDFCTKCKVGFYLHRGRCFDECPDGFAPLDETMECVEG
modifications: biotin at C-terminal BirA tag, immobilised; disulphide
In the case of B8, the Kd (mZNRF3ecto M98T) is reported as 1500 nM.

B9: mZNRF3ecto S90C (spontaneously disulphide cross-linked dimer) (domain or fragment, mouse, UniProt Q5SSZ7 53-205, looked up)
chain: KETAFVEVVLFESSPSGDYTTHTTGLTGRFSRAGAMLCAEGEIVQMHPLGLCNNNDEEDLYEYGWVGVVKLEQPELDPKPCLTVLGKAKRAVQRGATAVIFDVSENPEAIDQLNQGSEDPLKRPVVYVKGADAIKLMNIVNKQKVARARIQHL
notes: ZNRF3 ectodomain, mouse; limits K53-L205 as stated for mZNRF3ecto; probably as m1; also called S90C variant of mZNRF3_(ecto); predimerized mZNRF3_(ecto) S90C
B9: binds [7].

B10: human Rspo1 Fu1–Fu2 (I32-S143), immobilised for SPR (domain or fragment, UniProt Q2MKA7 32-143, looked up)
chain: ISAEGSQACAKGCELCSEVNGCLKCSPKLFILLERNDIRQVGVCLPSCPPGYFDARNPDMNKCIKCKIEHCEACFSHNFCTKCKEGLYLHKGRCYPACPEGSSAANGTMECS
modifications: biotin at the C-terminal BirA recognition sequence
notes: R-spondin 1, human, Fu1-Fu2, residues I32-S143; also called hRspo1
B10: binds [4].

B11: human Rspo3 Fu1–Fu2 (R32-H147), immobilised for SPR (domain or fragment, UniProt Q9BXY4 32-147, looked up)
chain: RMHPNVSQGCQGGCATCSDYNGCLSCKPRLFFALERIGMKQIGVCLSSCPSGYYGTRYPDINKCTKCKADCDTCFNKNFCTKCKSGFYLHLGKCLDNCPEGLEANNHTMECVSIVH
modifications: biotin at the C-terminal BirA recognition sequence
notes: R-spondin 3, human, Fu1-Fu2, residues R32-H147; also called hRspo3
B11: binds [4].

B12 was tested, and the Kd (hRSPO3) was 60 nM, the Kd (hRSPO1) was 6.8 µM and the binding result [8] was “binds”.
